Where a chain is given by its changes, count along the chain named. Names may count otherwise.

Data set [1] deals with the molecule itself. Put plainly: light scattering; 2 uM GalR diluted from a stock in 1 M NaCl into 50 mM TrisCl pH 8 with 78-1000 mM NaCl (or 25-700 mM Na2SO4 with 78 mM NaCl); 365 nm, stirring, room temperature; dimers to aggregates at low ionic strength.
Data set [2] concerns the molecule itself. Kind of data set: dynamic light scattering; 6.4 uM GalR^T322R, 20 °C, 250 mM NaCl; monomers to dimer.
Data set [3] concerns the molecule itself. Put plainly: negative staining transmission electron microscopy; 3.8 uM GalR, 50 mM Tris:Cl pH 8, 250 mM NaCl unless otherwise stated (GalR^N48I: 150 mM NaCl); flash-frozen, stained with 1% phosphotungstic acid; dimers to ordered aggregates.

B1: Gal repressor GalR, wild type (GalR^WT), hexahistidine-tagged (natural protein, Escherichia coli, UniProt P03024 1-343, looked up)
chain: MATIKDVARLAGVSVATVSRVINNSPKASEASRLAVHSAMESLSYHPNANARALAQQTTETVGLVVGDVSDPFFGAMVKAVEQVAYHTGNFLLIGNGYHNEQKERQAIEQLIRHRCAALVVHAKMIPDADLASLMKQMPGMVLINRILPGFENRCIALDDRYGAWLATRHLIQQGHTRIGYLCSNHSISDAEDRLQGYYDALAESGIAANDRLVTFGEPDESGGEQAMTELLGRGRNFTAVACYNDSMAAGAMGVLNDNGIDVPGEISLIGFDDVLVSRYVRPRLTTVRYPIVTMATQAAELALALADNRPLPEITNVFSPTLVRRHSVSTPSLEASHHATSD
notes: GalR, the Gal repressor of Escherichia coli; 37 kDa subunit
Turning to B1, the binding result in data set [1] is on record as “binds”.

B2: GalR^T322R, hexahistidine-tagged (natural protein, Escherichia coli, UniProt P03024 1-343, looked up)
chain: B1 chain with T322R
notes: GalR of Escherichia coli with T322R; Tetramer formation is strongly impaired in this mutant (cited); also called non-tetramerizing GalR mutant; source: expressed from vector plasmid pSEM1026 under an L-arabinose inducible promoter, purified
In the case of B2, in data set [2], the binding result was “binds”.

B3: GalR^N48I, hexahistidine-tagged (natural protein, Escherichia coli, UniProt P03024 1-343, looked up)
chain: B1 chain with N48I
notes: GalR of Escherichia coli with N48I; source: expressed from vector plasmid pSEM1026 under an L-arabinose inducible promoter, purified
B3: the binding result in data set [3] is “binds”.

These data come from publication PMC4899725, “The transcriptional regulator GalR self-assembles to form highly regular tubular structures” (Scientific Reports, 2016).
